The results in this text go back to publication PMC10821409, “The transport activity of the multidrug ABC transporter BmrA does not require a wide separation of the nucleotide-binding domains” (The Journal of Biological Chemistry, 2023).

The series concerns the molecule itself. Description: cryo-EM structure; detergent-purified protein (DDM/cholate), apo, inward-facing state; C2 symmetry.

B1: BmrA WT, homodimeric multidrug ABC transporter from Bacillus subtilis (natural protein)
chain: MPTKKQKSKSKLKPFFALVRRTNPSYGKLAFALALSVVTTLVSLLIPLLTKQLVDGFSMSNLSGTQIGLIALVFFVQAGLSAYATYALNYNGQKIISGLRELLWKKLIKLPVSYFDTNASGETVSRVTNDTMVVKELITTHISGFITGIISVIGSLTILFIMNWKLTLLVLVVVPLAALILVPIGRKMFSISRETQDETARFTGLLNQILPEIRLVKASNAEDVEYGRGKMGISSLFKLGVREAKVQSLVGPLISLVLMAALVAVIGYGGMQVSSGELTAGALVAFILYLFQIIMPMGQITTFFTQLQKSIGATERMIEILAEEEEDTVTGKQIENAHLPIQLDRVSFGYKPDQLILKEVSAVIEAGKVTAIVGPSGGGKTTLFKLLERFYSPTAGTIRLGDEPVDTYSLESWREHIGYVSQESPLMSGTIRENICYGLERDVTDAEIEKAAEMAYALNFIKELPNQFDTEVGERGIMLSGGQRQRIAIARALLRNPSILMLDEATSSLDSQSEKSVQQALEVLMEGRTTIVIAHRLSTVVDADQLLFVEKGEITGRGTHHELMASHGLYRDFAEQQLKMNADLENKAG
notes: BmrA, multidrug ABC transporter, Bacillus subtilis; hexa histidine-tagged pET23 BmrA; Residues 578 onward could not be modelled in PDB 8QOE; also called WT BmrA; WT protein; source: E. coli C41(DE3), purified in DDM/cholate (Ni-NTA)
Take B1: the binding result is listed as “binds”.
